Source: patent publication US20200317768A1 (published 2020)
Numbering of substitutions follows the chain as printed. Names and notes keep the numbering of the source.

T1: human FcγRIIb extracellular domain, His-tagged (human, UniProt P31994 43-217)
T1 construct: also called FcgRIIb (human)
T1 sequence: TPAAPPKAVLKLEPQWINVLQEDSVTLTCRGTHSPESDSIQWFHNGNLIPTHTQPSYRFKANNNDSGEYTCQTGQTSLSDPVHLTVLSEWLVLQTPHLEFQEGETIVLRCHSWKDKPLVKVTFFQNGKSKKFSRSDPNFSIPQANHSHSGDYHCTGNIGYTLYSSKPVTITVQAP

T2: cynomolgus monkey FcγRIIa2 extracellular domain, His-tagged (cynomolgus monkey)
T2 construct: also called cyno FcγRIIa2; cynoFcgRIIa2
T2 chain: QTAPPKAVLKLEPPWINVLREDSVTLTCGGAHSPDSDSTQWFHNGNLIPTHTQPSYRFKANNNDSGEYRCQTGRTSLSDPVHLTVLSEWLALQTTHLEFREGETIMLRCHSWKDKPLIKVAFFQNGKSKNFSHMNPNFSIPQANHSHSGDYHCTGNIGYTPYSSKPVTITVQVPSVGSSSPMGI

T3: human FcγRIIaH extracellular domain, His-tagged (human, UniProt P12318 34-217)
T3 construct: also called human FcγRIIa (type H); FcgRIIaH
T3 sequence: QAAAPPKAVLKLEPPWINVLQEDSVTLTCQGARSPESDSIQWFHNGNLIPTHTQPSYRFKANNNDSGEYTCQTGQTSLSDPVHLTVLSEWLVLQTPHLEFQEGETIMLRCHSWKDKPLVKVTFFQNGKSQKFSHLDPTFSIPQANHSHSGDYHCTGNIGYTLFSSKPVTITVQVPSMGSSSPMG

T4: cynomolgus monkey FcγRIIb extracellular domain, His-tagged (cynomolgus monkey)
T4 construct: also called cyno FcγRIIb; cynoFcγRIIb
T4 chain: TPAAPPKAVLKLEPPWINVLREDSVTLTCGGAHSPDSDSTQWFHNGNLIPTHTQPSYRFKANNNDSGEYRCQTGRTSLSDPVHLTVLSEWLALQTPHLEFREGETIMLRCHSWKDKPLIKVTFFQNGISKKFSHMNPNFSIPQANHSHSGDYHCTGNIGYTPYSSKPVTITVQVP

T5: cynomolgus monkey FcγRIIIaS extracellular domain, His-tagged (cynomolgus monkey, UniProt Q8SPW2 21-206 at identity 1.00))
T5 construct: also called cyno FcγRIIIaS; cynoFcγRIIIaS
T5 chain: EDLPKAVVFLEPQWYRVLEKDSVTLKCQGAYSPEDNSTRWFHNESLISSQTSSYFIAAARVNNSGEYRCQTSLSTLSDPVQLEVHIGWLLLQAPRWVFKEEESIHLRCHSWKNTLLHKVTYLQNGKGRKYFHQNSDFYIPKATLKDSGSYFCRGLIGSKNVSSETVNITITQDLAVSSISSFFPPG

T6: human FcγRIIaR extracellular domain, His-tagged (human, UniProt P12318 34-217)
T6 construct: also called human FcγRIIa (type R); FcgRIIaR
T6 chain: T3 sequence with H134R

T7: cynomolgus monkey FcγRIIa3 extracellular domain, His-tagged (cynomolgus monkey)
T7 construct: also called cyno FcγRIIa3; cynoFcgRIIa3
T7 chain: T2 chain with K127I, N130K, H133P, Q142R

B1: M103205H795-MY016/M103202L889-SK1 (antibody, human IgG1, kappa)
heavy: not shown
light: DIVMTQSPATLSLSPGERATLSCTSSQSVYHANWLSWFQQKPGQPPKLLIYWASTLAYGVPSRFSGSGSGTDFTLTISSLQPEDAATYYCAGGYGGGRYAFGQGTKVEIKRTVAAPSVFIFPPSDEQLKSGTASVVCLLNNFYPREAKVQWKVDNALQSGNSQESVTEQDSKDSTYSLSSTLTLSKADYEKHKVYACEVTHQGLSSPVTKSFNRGEC
notes: Substitution put into M103205H795-SG1
B2: M103205H795-MY037/M103202L889-SK1 (antibody, human IgG1, kappa)
heavy: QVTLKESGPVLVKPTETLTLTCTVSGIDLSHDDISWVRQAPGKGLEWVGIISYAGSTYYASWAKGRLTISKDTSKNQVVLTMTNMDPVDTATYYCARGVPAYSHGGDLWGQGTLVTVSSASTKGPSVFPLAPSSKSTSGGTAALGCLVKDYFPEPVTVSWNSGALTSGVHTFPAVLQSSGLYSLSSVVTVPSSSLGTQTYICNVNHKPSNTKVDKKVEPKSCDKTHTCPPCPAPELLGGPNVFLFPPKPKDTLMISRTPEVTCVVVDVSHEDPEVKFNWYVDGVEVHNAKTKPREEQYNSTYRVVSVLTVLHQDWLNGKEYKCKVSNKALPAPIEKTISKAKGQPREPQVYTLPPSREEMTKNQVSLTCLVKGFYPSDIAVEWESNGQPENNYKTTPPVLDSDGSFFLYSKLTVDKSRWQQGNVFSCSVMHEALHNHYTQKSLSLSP
light: B1 light
notes: as for B1
B3: M103205H795-MY038/M103202L889-SK1 (antibody, human IgG1, kappa)
heavy: not shown
light: B1 light
notes: as for B1
B4: M103205H795-MY041/M103202L889-SK1 (antibody, human IgG1, kappa)
heavy: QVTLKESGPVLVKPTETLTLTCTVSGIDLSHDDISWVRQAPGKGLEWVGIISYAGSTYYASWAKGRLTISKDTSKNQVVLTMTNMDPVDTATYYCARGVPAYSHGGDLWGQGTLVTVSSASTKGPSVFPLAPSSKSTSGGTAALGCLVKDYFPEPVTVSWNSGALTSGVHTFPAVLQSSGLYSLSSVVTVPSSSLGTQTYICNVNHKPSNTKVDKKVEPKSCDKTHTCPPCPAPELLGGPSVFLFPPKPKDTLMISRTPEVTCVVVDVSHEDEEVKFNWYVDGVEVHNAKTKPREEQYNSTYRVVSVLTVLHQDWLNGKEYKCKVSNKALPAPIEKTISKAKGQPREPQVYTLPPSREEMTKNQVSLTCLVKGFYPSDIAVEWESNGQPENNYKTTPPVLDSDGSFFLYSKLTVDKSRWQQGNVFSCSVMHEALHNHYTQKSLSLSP
light: B1 light
notes: as for B1
B5: M103205H795-MY043/M103202L889-SK1 (antibody, human IgG1, kappa)
heavy: not shown
light: B1 light
notes: as for B1
B6: M103205H795-MY044/M103202L889-SK1 (antibody, human IgG1, kappa)
heavy: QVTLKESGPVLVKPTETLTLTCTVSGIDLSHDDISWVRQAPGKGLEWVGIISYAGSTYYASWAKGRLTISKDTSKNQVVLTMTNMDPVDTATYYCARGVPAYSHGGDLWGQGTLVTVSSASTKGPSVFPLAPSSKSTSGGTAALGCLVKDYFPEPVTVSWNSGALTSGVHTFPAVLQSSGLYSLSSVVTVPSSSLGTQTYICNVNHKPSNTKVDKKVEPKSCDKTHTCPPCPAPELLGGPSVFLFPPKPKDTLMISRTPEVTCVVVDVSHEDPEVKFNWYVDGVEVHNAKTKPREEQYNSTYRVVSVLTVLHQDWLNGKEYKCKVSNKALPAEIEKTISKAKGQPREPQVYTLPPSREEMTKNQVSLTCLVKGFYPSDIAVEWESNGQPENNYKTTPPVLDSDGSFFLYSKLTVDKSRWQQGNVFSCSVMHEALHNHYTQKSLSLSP
light: B1 light
notes: as for B1
B7: M103205H795-MY045/M103202L889-SK1 (antibody, human IgG1, kappa)
heavy: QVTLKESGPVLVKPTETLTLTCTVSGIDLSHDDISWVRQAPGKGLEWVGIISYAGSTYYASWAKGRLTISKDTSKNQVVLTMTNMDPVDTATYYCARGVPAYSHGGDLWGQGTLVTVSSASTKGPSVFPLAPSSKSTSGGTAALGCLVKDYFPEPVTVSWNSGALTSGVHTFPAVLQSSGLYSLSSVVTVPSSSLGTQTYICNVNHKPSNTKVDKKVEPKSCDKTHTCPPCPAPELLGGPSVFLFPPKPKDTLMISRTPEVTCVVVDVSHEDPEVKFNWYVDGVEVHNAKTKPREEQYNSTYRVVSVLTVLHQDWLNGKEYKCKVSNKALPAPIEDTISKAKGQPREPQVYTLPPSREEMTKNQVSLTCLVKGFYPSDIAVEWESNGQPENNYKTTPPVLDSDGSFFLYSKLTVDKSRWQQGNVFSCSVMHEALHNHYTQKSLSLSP
light: B1 light
notes: as for B1
B8: M103205H795-MY048/M103202L889-SK1 (P271D) (antibody, human IgG1, kappa)
heavy: not shown
light: B1 light
notes: Here the P271D molecule is meant; Put into M103205H795-SG1
B9: M103205H795-MY063/M103202L889-SK1 (antibody, human IgG1, kappa)
heavy: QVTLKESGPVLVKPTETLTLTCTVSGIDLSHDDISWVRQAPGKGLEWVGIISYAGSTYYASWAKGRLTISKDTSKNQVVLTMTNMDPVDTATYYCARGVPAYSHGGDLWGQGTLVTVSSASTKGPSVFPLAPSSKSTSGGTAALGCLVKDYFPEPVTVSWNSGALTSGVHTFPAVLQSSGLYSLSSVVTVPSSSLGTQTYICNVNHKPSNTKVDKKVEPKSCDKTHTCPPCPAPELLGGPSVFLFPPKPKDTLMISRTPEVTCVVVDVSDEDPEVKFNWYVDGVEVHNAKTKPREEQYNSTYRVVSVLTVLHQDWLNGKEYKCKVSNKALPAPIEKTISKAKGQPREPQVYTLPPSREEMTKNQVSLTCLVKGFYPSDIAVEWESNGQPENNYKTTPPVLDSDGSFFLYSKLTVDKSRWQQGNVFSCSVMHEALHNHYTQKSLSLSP
light: B1 light
notes: as for B1
B10: M103205H795-MY064/M103202L889-SK1 (antibody, human IgG1, kappa)
heavy: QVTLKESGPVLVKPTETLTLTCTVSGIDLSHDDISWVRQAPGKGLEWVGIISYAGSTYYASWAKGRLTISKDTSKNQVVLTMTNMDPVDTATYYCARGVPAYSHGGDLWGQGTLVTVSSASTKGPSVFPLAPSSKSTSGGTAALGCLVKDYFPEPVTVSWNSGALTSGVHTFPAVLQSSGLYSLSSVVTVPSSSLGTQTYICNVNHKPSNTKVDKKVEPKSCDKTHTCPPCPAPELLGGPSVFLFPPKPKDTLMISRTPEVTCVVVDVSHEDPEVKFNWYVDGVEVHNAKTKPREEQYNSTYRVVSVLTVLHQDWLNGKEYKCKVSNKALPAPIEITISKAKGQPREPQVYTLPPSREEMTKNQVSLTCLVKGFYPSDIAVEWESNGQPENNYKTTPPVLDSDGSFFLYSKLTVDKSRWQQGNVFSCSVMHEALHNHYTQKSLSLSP
light: B1 light
notes: as for B1
B11: M103205H795-MY065/M103202L889-SK1 (antibody, human IgG1, kappa)
heavy: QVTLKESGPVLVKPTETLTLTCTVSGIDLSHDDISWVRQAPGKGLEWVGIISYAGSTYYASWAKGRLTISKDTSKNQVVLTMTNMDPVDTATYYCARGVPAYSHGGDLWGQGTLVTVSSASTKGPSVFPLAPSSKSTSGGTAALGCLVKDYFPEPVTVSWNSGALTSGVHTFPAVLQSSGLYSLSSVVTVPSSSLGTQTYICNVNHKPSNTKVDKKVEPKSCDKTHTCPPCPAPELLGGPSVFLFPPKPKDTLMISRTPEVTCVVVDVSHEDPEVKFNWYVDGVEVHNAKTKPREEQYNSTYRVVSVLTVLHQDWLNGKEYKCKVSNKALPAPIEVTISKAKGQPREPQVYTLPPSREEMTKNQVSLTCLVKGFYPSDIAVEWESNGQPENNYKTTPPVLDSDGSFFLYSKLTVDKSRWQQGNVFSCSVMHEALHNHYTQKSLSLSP
light: B1 light
notes: as for B1
B12: M103205H795-MY068/M103202L889-SK1 (antibody, human IgG1, kappa)
heavy: not shown
light: B1 light
notes: as for B1
B13: M103205H795-MY069/M103202L889-SK1 (antibody, human IgG1, kappa)
heavy: not shown
light: B1 light
notes: as for B1
B14: M103205H795-MY070/M103202L889-SK1 (antibody, human IgG1, kappa)
heavy: not shown
light: B1 light
notes: as for B1
B15: M103205H795-MY071/M103202L889-SK1 (antibody, human IgG1, kappa)
heavy: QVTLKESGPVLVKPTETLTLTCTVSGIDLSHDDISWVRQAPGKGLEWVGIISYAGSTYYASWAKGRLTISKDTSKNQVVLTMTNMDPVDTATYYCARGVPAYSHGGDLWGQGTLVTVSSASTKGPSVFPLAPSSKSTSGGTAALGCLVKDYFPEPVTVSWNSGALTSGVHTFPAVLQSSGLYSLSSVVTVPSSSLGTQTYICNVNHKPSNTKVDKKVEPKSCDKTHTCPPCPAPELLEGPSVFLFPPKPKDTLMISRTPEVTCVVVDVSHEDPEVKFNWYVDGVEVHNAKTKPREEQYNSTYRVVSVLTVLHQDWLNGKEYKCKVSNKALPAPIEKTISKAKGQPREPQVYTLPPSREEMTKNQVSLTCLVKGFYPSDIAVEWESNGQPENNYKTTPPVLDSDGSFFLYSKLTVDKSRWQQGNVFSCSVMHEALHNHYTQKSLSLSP
light: B1 light
notes: as for B1
B16: M103205H795-MY072/M103202L889-SK1 (antibody, human IgG1, kappa)
heavy: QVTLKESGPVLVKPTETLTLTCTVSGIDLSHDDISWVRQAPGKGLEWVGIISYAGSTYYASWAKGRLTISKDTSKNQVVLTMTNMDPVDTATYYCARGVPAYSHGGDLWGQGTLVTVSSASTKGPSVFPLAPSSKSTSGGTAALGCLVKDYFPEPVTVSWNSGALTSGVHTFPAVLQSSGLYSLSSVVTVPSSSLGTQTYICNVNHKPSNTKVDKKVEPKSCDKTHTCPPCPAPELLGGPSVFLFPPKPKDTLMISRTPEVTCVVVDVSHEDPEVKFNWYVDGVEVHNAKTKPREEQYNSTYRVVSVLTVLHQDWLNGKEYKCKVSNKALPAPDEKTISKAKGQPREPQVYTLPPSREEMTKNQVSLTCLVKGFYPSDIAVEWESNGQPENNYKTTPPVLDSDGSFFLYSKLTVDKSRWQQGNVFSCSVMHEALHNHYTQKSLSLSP
light: B1 light
notes: as for B1
B17: M103205H795-MY073/M103202L889-SK1 (antibody, human IgG1, kappa)
heavy: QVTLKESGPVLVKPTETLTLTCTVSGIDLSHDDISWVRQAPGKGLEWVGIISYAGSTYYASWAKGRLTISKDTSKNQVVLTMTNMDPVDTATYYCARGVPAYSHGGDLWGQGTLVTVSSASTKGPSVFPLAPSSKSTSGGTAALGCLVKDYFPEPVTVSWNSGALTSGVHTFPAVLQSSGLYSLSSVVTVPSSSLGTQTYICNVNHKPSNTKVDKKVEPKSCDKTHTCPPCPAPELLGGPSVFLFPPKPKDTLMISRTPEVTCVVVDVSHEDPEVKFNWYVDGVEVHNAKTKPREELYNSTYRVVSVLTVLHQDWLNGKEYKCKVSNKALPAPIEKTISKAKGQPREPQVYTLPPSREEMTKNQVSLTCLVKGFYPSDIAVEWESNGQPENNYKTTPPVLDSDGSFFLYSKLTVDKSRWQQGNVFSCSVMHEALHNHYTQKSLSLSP
light: B1 light
notes: as for B1
B18: M103205H795-MY124/M103202L889-SK1 (antibody, human IgG1, kappa)
heavy: not shown
light: B1 light
notes: as for B1

Key:
Test in all cases: SPR; KD of SG1 / KD of variant;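 further: relative to parent M103205H795-SG1 carrying the SG1 human heavy chain constant region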
[1] = biological target: T1, human FcγRIIb extracellular domain, …
[2] = biological target: T2, cynomolgus monkey FcγRIIa2 …
[3] = biological target: T3, human FcγRIIaH extracellular domain, …
[4] = biological target: T4, cynomolgus monkey FcγRIIb extracellular …
[5] = biological target: T8, human FcγRIIIaV extracellular domain, His-tagged (human, UniProt P08637 17-208)
T8 construct: also called FcgRIIIaV
T8 sequence (P08637 17-208 F176V): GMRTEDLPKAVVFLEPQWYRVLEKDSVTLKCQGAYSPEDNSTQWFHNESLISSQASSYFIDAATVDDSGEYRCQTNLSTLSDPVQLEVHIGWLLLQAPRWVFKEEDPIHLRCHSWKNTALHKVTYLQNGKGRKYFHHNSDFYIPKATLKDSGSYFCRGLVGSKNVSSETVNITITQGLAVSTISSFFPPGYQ

[6] = biological target: T5, cynomolgus monkey FcγRIIIaS …
[7] = biological target: T6, human FcγRIIaR extracellular domain, …
[8] = biological target: T7, cynomolgus monkey FcγRIIa3 …

Binder	KD fold (SG1 = 1) [1] [fold]	KD fold (SG1 = 1) [2] [fold]	KD fold (SG1 = 1) [3] [fold]	KD fold (SG1 = 1) [4] [fold]	KD fold (SG1 = 1) [5] [fold]	KD fold (SG1 = 1) [6] [fold]	KD fold (SG1 = 1) [7] [fold]	KD fold (SG1 = 1) [8] [fold]
B1	1.6	1.5	0.8	1.1	2.15	1.57	1.2	5.3
B2	1.8	1.1	0.6	0.8	2.15	1.8	1.2	1.5
B3	1.8	1.1	0.6	0.9	1.47	1.16	0.7	1.5
B4	1.6	1.2	0.4	0.5	1.69	1.38	0.9	2.3
B5	1.5	0.1	0.2	0.4	0.68	0.43	0.7	0.9
B6	1.4	1.5	0.6	1.1	0.9	0.77	1.2	0.3
B7	1.6	1.3	0.4	0.8	3.38	2.57	0.7	2.5
B8	1.5	0.5	0.4	0.5	1.33	0.97	0.5	3.5
B9	7	3.4	2.6	5.3	5.06	5.37	5.2	8.5
B10	1.9	2	1.4	1.6	3.68	3	1.6	2.5
B11	2.4	1.8	1.3	1.4	3.52	3.27	2.2	4
B12	2.7	1.9	1.9	1.8	0.58	0.67	2.1	3
B13	2.9	3.2	1.6	2.5	3.38	4.19	2.8	2.6
B14	1.8	1.8	1.4	1.5	1.16	0.73	1.5	3.6
B15	1.9	1.4	1.7	0.7	1.59	1.29	2.4	1.5
B16	3.1	4.3	2.8	3.8	6.75	6.79	2.3	6.5
B17	2.3	8.9	2.9	2.7	2.38	2.12	2.2	3.3
B18	0.5	1.6	4.9	0.8	0.16	0.28	2.1	1.4
